The source of these data is publication PMC5499591 (Nucleic Acids Research, 2017).

Series [1] concerns the target T1, GST-p180 (budding yeast (S. cerevisiae), UniProt P13382 1-1468).
T1 sequence: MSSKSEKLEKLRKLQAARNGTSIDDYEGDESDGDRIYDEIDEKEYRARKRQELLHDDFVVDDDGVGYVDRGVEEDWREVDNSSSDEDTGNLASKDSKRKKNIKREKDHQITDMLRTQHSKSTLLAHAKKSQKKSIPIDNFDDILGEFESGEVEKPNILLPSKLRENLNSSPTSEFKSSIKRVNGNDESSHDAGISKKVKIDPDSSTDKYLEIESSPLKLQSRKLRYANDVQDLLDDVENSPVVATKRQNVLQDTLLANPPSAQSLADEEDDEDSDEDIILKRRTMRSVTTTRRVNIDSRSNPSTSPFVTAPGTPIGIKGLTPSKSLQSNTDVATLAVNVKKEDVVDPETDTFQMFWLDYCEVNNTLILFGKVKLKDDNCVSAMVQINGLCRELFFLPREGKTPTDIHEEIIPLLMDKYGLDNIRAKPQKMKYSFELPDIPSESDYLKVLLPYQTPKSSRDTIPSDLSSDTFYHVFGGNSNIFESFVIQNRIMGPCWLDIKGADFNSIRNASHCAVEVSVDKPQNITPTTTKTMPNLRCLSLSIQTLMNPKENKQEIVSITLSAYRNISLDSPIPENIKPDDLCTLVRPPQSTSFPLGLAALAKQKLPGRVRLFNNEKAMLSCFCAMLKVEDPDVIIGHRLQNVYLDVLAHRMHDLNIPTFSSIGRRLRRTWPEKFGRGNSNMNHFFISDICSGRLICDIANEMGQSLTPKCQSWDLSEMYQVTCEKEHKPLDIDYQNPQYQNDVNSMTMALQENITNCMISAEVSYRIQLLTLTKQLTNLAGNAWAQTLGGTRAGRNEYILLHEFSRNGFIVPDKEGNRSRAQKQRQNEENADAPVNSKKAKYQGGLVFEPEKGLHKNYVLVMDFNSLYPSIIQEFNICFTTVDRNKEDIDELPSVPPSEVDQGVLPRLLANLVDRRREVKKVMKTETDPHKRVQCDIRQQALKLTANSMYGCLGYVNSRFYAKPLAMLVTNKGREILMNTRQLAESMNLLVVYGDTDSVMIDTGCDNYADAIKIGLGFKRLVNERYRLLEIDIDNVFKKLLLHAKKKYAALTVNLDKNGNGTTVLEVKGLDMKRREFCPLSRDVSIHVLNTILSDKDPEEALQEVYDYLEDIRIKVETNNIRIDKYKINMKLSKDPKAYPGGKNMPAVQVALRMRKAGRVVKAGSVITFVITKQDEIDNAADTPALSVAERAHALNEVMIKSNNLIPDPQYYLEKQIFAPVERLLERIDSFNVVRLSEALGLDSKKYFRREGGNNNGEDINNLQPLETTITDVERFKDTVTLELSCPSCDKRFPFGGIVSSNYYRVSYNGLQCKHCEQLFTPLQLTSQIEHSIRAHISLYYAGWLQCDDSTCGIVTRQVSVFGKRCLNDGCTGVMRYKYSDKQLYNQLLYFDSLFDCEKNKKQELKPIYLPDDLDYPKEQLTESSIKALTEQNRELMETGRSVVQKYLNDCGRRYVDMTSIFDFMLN
Kind of series: pull-down.

In series [2] the target is T2, wild-type GST-Mcm10 (Saccharomyces cerevisiae, UniProt P32354 1-571).
T2 sequence: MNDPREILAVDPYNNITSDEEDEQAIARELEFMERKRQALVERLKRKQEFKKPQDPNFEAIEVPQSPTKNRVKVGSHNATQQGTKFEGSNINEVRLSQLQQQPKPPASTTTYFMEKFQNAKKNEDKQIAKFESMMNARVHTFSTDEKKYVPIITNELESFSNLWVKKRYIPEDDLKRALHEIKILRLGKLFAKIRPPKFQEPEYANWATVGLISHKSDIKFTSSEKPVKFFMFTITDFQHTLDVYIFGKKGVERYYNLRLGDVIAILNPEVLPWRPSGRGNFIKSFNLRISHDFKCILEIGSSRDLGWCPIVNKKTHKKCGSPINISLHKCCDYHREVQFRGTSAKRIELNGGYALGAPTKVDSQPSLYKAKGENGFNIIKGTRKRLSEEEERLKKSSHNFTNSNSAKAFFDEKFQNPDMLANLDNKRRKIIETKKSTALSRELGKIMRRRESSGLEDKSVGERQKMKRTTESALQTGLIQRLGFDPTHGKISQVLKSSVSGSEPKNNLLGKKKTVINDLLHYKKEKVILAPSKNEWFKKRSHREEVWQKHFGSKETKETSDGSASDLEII
The series can be described thus: pull-down.

The target in series [3] is radiolabeled PKA-Mcm2–7 complex (budding yeast (S. cerevisiae), UniProt P29469;P24279;P30665;P29496;P53091;P38132). Kind of series: pull-down.
Series [4] addresses T3, GST-Dbf4 (budding yeast (S. cerevisiae), UniProt P32325 1-704).
T3 sequence: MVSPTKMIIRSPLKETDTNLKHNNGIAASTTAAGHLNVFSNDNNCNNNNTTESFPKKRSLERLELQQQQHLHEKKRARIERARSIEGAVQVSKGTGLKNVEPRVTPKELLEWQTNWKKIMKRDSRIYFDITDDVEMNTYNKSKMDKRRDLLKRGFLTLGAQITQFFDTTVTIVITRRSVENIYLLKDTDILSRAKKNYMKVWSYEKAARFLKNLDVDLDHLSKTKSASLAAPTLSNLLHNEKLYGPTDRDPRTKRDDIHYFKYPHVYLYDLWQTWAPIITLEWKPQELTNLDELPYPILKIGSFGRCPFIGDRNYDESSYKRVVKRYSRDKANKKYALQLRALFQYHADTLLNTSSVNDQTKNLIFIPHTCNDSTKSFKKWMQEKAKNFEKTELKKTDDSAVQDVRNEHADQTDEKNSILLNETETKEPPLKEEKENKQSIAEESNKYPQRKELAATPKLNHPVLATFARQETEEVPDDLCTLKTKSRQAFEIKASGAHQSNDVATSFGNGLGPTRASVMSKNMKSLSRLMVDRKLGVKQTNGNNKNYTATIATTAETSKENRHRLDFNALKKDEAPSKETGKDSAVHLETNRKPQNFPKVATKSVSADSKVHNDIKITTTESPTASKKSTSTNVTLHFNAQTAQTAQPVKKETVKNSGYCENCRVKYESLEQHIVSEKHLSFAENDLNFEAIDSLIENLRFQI
Kind of series: pull-down.

For series [5], the target named is T4, GST-Cdc45 (budding yeast (S. cerevisiae), UniProt Q08032 1-650).
T4 sequence: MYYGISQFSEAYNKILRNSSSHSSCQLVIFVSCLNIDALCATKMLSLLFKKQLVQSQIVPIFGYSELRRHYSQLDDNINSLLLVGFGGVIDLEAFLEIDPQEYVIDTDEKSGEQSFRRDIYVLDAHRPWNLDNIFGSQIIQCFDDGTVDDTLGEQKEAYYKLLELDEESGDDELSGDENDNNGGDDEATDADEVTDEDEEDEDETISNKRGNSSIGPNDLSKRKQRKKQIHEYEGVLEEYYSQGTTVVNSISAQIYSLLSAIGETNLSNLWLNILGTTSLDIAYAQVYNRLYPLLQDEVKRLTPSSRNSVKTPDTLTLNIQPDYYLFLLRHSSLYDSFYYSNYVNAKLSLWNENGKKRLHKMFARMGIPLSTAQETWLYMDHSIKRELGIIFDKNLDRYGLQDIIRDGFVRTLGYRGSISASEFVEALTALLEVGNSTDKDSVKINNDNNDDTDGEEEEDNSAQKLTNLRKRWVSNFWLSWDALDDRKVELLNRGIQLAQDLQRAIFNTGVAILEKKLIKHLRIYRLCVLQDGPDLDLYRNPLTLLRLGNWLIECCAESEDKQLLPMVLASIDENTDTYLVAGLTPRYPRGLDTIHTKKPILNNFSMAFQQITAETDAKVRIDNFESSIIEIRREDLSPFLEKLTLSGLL
Kind of series: pull-down.

Series [6] addresses T5, GST-Mcm10 (wild type) (Saccharomyces cerevisiae, UniProt P32354 1-571).
T5 sequence: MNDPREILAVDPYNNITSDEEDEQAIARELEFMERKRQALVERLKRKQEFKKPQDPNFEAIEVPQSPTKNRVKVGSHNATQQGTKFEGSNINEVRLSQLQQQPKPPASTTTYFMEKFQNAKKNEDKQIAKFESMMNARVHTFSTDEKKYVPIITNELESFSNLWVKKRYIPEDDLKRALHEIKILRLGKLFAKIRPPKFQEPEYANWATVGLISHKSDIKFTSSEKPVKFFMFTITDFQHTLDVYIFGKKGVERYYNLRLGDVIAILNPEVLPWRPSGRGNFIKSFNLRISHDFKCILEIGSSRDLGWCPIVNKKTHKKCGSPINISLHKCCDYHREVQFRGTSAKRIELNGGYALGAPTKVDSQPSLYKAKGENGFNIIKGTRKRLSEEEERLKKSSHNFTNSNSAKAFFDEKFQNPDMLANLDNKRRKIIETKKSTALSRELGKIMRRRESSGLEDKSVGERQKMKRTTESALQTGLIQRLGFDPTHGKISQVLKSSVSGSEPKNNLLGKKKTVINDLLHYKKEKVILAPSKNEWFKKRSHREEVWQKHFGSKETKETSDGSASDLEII
Kind of series: GST pull-down.

B1: radiolabeled wild-type PKA-Mcm10 (natural protein)
chain: MNDPREILAVDPYNNITSDEEDEQAIARELEFMERKRQALVERLKRKQEFKKPQDPNFEAIEVPQSPTKNRVKVGSHNATQQGTKFEGSNINEVRLSQLQQQPKPPASTTTYFMEKFQNAKKNEDKQIAKFESMMNARVHTFSTDEKKYVPIITNELESFSNLWVKKRYIPEDDLKRALHEIKILRLGKLFAKIRPPKFQEPEYANWATVGLISHKSDIKFTSSEKPVKFFMFTITDFQHTLDVYIFGKKGVERYYNLRLGDVIAILNPEVLPWRPSGRGNFIKSFNLRISHDFKCILEIGSSRDLGWCPIVNKKTHKKCGSPINISLHKCCDYHREVQFRGTSAKRIELNGGYALGAPTKVDSQPSLYKAKGENGFNIIKGTRKRLSEEEERLKKSSHNFTNSNSAKAFFDEKFQNPDMLANLDNKRRKIIETKKSTALSRELGKIMRRRESSGLEDKSVGERQKMKRTTESALQTGLIQRLGFDPTHGKISQVLKSSVSGSEPKNNLLGKKKTVINDLLHYKKEKVILAPSKNEWFKKRSHREEVWQKHFGSKETKETSDGSASDLEII
modifications: 32P label put on the PKA tag by protein kinase A with [gamma-32P]-ATP
B1: the binding result in series [1] and in series [2] was “binds” each time.

B2: GST-Mcm10-4A (Mcm10-I26A-L30A-R37A-L40A) (natural protein)
chain: MNDPREILAVDPYNNITSDEEDEQAAAREAEFMERKAQAAVERLKRKQEFKKPQDPNFEAIEVPQSPTKNRVKVGSHNATQQGTKFEGSNINEVRLSQLQQQPKPPASTTTYFMEKFQNAKKNEDKQIAKFESMMNARVHTFSTDEKKYVPIITNELESFSNLWVKKRYIPEDDLKRALHEIKILRLGKLFAKIRPPKFQEPEYANWATVGLISHKSDIKFTSSEKPVKFFMFTITDFQHTLDVYIFGKKGVERYYNLRLGDVIAILNPEVLPWRPSGRGNFIKSFNLRISHDFKCILEIGSSRDLGWCPIVNKKTHKKCGSPINISLHKCCDYHREVQFRGTSAKRIELNGGYALGAPTKVDSQPSLYKAKGENGFNIIKGTRKRLSEEEERLKKSSHNFTNSNSAKAFFDEKFQNPDMLANLDNKRRKIIETKKSTALSRELGKIMRRRESSGLEDKSVGERQKMKRTTESALQTGLIQRLGFDPTHGKISQVLKSSVSGSEPKNNLLGKKKTVINDLLHYKKEKVILAPSKNEWFKKRSHREEVWQKHFGSKETKETSDGSASDLEII
B2: the binding result in series [3] is “binds”.

B3: radiolabeled PKA-Mcm10-4A (Mcm10-I26A-L30A-R37A-L40A) (natural protein)
chain: MNDPREILAVDPYNNITSDEEDEQAAAREAEFMERKAQAAVERLKRKQEFKKPQDPNFEAIEVPQSPTKNRVKVGSHNATQQGTKFEGSNINEVRLSQLQQQPKPPASTTTYFMEKFQNAKKNEDKQIAKFESMMNARVHTFSTDEKKYVPIITNELESFSNLWVKKRYIPEDDLKRALHEIKILRLGKLFAKIRPPKFQEPEYANWATVGLISHKSDIKFTSSEKPVKFFMFTITDFQHTLDVYIFGKKGVERYYNLRLGDVIAILNPEVLPWRPSGRGNFIKSFNLRISHDFKCILEIGSSRDLGWCPIVNKKTHKKCGSPINISLHKCCDYHREVQFRGTSAKRIELNGGYALGAPTKVDSQPSLYKAKGENGFNIIKGTRKRLSEEEERLKKSSHNFTNSNSAKAFFDEKFQNPDMLANLDNKRRKIIETKKSTALSRELGKIMRRRESSGLEDKSVGERQKMKRTTESALQTGLIQRLGFDPTHGKISQVLKSSVSGSEPKNNLLGKKKTVINDLLHYKKEKVILAPSKNEWFKKRSHREEVWQKHFGSKETKETSDGSASDLEII
modifications: 32P label put on the PKA tag by protein kinase A with [gamma-32P]-ATP
In the case of B3, the binding result in series [1], in series [4] and in series [5] was “binds” each time.

B4: blunt dsDNA (called 30mer) (dsDNA)
DNA 1: ATGTCCTAGCAAGCCAGAATTCGGCAGCGTC
DNA 2: GACGCTGCCGAATTCTGGCTTGCTAGGACAT
For the molecule B4, the binding result in series [6] is given as “binds”.

B5: 80mer ssDNA (80dT) (ssDNA)
DNA: TTTTTTTTTTTTTTTTTTTTTTTTTTTTTTTTTTTTTTTTTTTTTTTTTTTTTTTTTTTTTTTTTTTTTTTTTTTTTTTT
As to B5, in series [6], the binding result is “binds”.
